According to US20260248946A1 (TUOJIE BIOTECH SHANGHAI, published 2026):

Key:
[1] = target: T1, human CD79B on the surface of cells (DoHH2 / DOHH-2, WSU-DLCL2) (human, UniProt P40259 29-229); assay: FACS on DoHH2 cells
T1 construct: whole, on cells; also called CD79B protein on the surface of DoHH2 cells; DoHH2 cell
T1 sequence (looked up): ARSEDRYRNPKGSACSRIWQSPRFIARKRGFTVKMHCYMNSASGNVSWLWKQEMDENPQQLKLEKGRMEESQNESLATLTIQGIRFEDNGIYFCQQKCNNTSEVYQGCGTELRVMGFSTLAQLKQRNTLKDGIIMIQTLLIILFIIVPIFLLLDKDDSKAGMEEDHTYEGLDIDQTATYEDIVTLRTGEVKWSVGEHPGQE

[2] = target: T2, fusion protein of human CD79B extracellular domain (ECD) and His tag (human, UniProt P40259 29-159); assay: SPR, Human CD79B-His protein
T2 construct: also called human CD79B ECD-His; Human CD79B-His protein
T2 sequence: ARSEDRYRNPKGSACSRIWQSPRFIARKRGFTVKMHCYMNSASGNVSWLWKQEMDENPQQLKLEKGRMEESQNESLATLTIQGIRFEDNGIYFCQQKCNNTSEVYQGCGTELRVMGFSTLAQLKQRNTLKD

[3] = target: T2, fusion protein of human CD79B …; assay: ELISA on Human CD79B-His protein
[4] = target: T3, human CD79B-His protein (Cat. #29750-H08H, Sino Biological) (human, UniProt P40259 29-159); assay: Biacore T200, antibody captured by anti-human capture antibody on CM5, 1:1 Langmuir fit; EC50
T3 construct: also called human CD79B protein; CD79B protein
T3 sequence (looked up): T2 sequence
Source text: Experimental procedures: human antibody capture antibodies were covalently coupled to a CM5 biochip according to the method described instructions of the human antibody capture kit for affinity capture of a certain amount of CD79B antibody.
Statistics and analysis of data: data were fitted by BIAevaluation version 4.1, GE software using a (1:1) Langmuir model to obtain affinity values.

B1: hAb015-10 (antibody, human IgG1, kappa, V domains shown)
VH: EVQLVQSGAEVKKPGSSVKVSCKASGSSFSSYGINWVKQAPGQGLEWIGEIFPRSGNTYYNEKFEGRATLTADKSTSTAYMELRSLRSEDTAVYYCAKGDLGDFDYWGQGTTVTVSS
VL: DFVMTQTPLSLPVTPGEPASISCRSSQSIVHSDGNTYFEWYLQKPGQSPKLLIYKVSNRFSGVPDRFSGSGSGTDFTLKISRVEAEDVGVYYCFQGSHVPWTFGGGTKVEIKR
notes: Humanized antibody; also called hAb015-10 humanized antibody; humanized mAb015
[1]
  EC50: 0.4 nM
[2]
  Kd: 1.5 nM
[3]
  EC50: 0.05 nM
[4]
  EC50: 0.38 nM
